This series is described as follows: label from the status in PepcDB records.

Consider “MTVAGLWLFAMALGASALGGMLGMASGIFIVPLLVLWGIDVHAAIAASIVSVIACSCGSAAAFLQSGLTHVRLAVVLETATTLGALTSVFLVGAVPVAALYALFAVVLVVSAWQMLARRRDPARASGAPACRWAGALRLHGRYRDPAAGRHRRYRVQRLPLGMSLMYGAGVLSALLGIGSGVLKIPAMDSALRLPLKVSSATSNFMIGVTAAASAAVYFARGEIDPAVAGPVALGSVAGSVLGARILMHVSGERLRLLFVAVLALLAVQMLLMALGVQWPGGGR”, for which the protein production entry is given as “failed”. With “MTVEYTASDLATYQNEVNEQIAKNKAHLESLTHPGSKVTFPIDQDISATPQNPNLKVFFFDIDNCLYKSSTRIHDLMQQSILRFFQTHLKLSPEDAHVLNNSYYKEYGLAIRGLVMFHKVNALEYNRLVDDSLPLQDILKPDIPLRNMLLRLRQSGKIDKLWLFTNAYKNHAIRCLRLLGIADLFDGLTYCDYSRTDTLVCKPHVKAFEKAMKESGLARYENAYFIDDSGKNIETGIKLGMKTCIHLVENEVNEILGQTPEGAIVISDILELPHVVSDLF”, the protein production result was “not failed”. As for “MTVIDDRDMMGAESSELSEAGARDYFELLKPRVMSLVVFTAFAGLVLAPGEINPILGLIAILCIAVGAGASGALNMWYDADIDAVMTRTAKRPIPSGRIAPREALAFGLTLSAFSVVILGLAVNWFSAGLLAFTIFFYAVVYTMWLKRSTPQNIVIGGAAGAFPPMLGWACVTGGVSLDSVILFLIIFLWTPAHFWALALFKMRDYGAVGIPMMPNVAGERSTKNQMIVYAVLTAAAAVAPFFTGLASAGYGIFAAVLSAIFVYCSFDVRRMPEGDEKMLPAKKMFAYSVLYLFAIFSGLLADHFAPALKAVISGVL”, the protein production result was “failed”.

Regarding “MTVIIAGERSGAGKTTITLAMLAYLARQKLRVQSFKVGPDYIDPMFHSQITGRPCRNLDPFLTSEAYVQRCFHYHSQGTPYSLIEGVMGLFDGVPYQGLTDYSSTAHIARLLNLPIVFVMDCQRLSGSVAAIVQGYRHWQPGVNLVGVILNRVGGDRHLELLKIALEPLRIPILGVFFRQQDLTLPDRHLGLVPCGELPQIQQYFDQLAHVAAQQLDWPKLLPLLETPRNLPSPMSLFDVPQKSPQARLAIAQDQAFNFYYADNLDLLTHCGFELIPFSPLEDTELPPAIDGVYLGGGFPELFAEQLSQNQALKDQLKTLIHQGLPTYGECGGLMYLSQSLTNFEGQIFPMLEMLPTAVTMGGKLSLGYRQAQVVNSHSWLWQTESLRGHEFHRSQMTKLPNQALYRQRGLLAIDQNTTDGWCVGSVQASYLHLHWGSQISTVEKFRAACLAFQKKLSYLGKHPPFKSVPLRNTGGDAHGRE”, the protein production entry was “failed”. To “MTVKTEAAKGTLTYSRMRGMVAILIAFMKQRRMGLNDFIQKIANNSYACKHPEVQSILKISQPQEPELMNANPSPPPSPSQQINLGPSSNPHAKPSDFHFLKVIGKGSFGKVLLARHKAEEVFYAVKVLQKKAILKKKEEKHIMSERNVLLKNVKHPFLVGLHFSFQTADKLYFVLDYINGGELFYHLQRERCFLEPRARFYAAEIASALGYLHSLNIVYRDLKPENILLDSQGHIVLTDFGLCKENIEHNSTTSTFCGTPEYLAPEVLHKQPYDRTVDWWCLGAVLYEMLYGLPPFYSRNTAEMYDNILNKPLQLKPNITNSARHLLEGLLQKDRTKRLGAKDDFMEIKSHVFFSLINWDDLINKKITPPFNPNVSGPNDLRHFDPEFTEEPVPNSIGKSPDSVLVTASVKEAAEAFLGFSYAPPTDSFL” belongs “failed”. To “MTVNAKTSPSAGNTWRDLPAAQQPEYPDTEALRAVIADLESYPPLVFAGECDQLRARMAAVAKGEAFLLQGGDCAEAFDAVSADHIRNKLKTLLQMGAVLTYAASVPVVKVGRIAGQYSKPRSKPTETRDGVTLPTYRGDSVNGFDFTEAARIPDPERLKRMYHASASTLNLVRAFTTGGYADLRQVHAWNQDFVKSSPSGQRYEQLAREIDNALNFMRACGTDPAEFQTVEFFSSHEALLLDYESALTRVDSRTGQLYDVSGHMVWIGERTRQLDHAHIEFASRIRNPIGIKLGPSTTAEEALQYIERLDPEREPGRLTFIVRMGADKIRDKLPELVEKVTASGATVAWITDPMHGNTYEAASGHKTRRFDDVLDEVKGFFEVHKSLGTHPGGIHVELTGDDVTECVGGGDEIFVDDLHQRYETACDPRLNRSQSLDLAFLVAEMYRDQ” belongs “not failed”. For “MTVNMTKGQAISLQKNDGGTLTAVRMGLGWQAAPRRGLFGSRTREIDLDASAVLFADKQPVDVVFFRHLVSDDGSVRHTGDNLVGGVGQGGDDEAILVDLQRLPVHIDQIVFTVNSFTGQTFQEVQNAFCRLVDETNGEELARYTLAGGGQYTAQIMAKVHRAGAGWQMTALGTPSNGRTFQDLMPAILPHL” the value was “failed”; for “MTVPWHLVALAFAVCLVVAAPGFLRVYYFVSLCYAGAIAAQSLVFALLFSTTISGWVTLQLLLLLIYGVRLGAFLAVRERNPAYAAELARAERRTAELKLWHQIAIWLGVSLLFTLLFLPALLTLSLQAQGAWPVSTPLGVMIMAVGLWVESLADWQKYRYKAEHPSHYCDTGLYRLVRCPNYLGEMVFWFGVWFSGLSAYGSGGAWTLTLLGMLYILALMTAAAAGLERKQDERYGDRPDYQEYVRSVPILFPWVPLFTLRKLLIRFR”, “failed”; for “MTVTAPNALNFECETGNYHTFCPISCVAWLYQKIEDSFFLVIGTKTCGYFLQNAMGVMIFAEPRYAMAELEEGDISAQLNDYEELKRLCLEIKRDRNPSVIVWIGTCTTEIIKMDLEGLAPKLEAEIGIPIVVARANGLDYAFTQGEDTVLAAMAARCPTSTAISDPEERNPIQRLLNFGKKKEEVQAQSSQYHPHPPLVLFGSLPDPVVTQLTLELKKQGIKVSGWLPAKRYTELPVIDEGYYVAGVNPFLSRTATTLIRRRKCQLITAPFPIGPDGTRTWIEQICATFGIQPQGLAEREAETWQKLSDYLELVRGKSVFFMGDNLLEISLARFLIRCGMRVLEIGIPYMDKRYQAAELALLSQTCAEMGHPLPTIVEKPDNYNQLQRIKALQPDLVITGMAHANPLEARGISTKWSVEFTFAQIHGFGNARDILELVTRPLRRNQALAGLGWQKLVAHLEHHHHHH”, “failed”.

As for “MTVTLKNDYLTVQINEKGAELSSVKANDGIEYIWQADPAVWGRHAPVLFPFVGRLKDDQFQVEDQTYPMGQHGFARDMDFEAVEQDDQHVIMELNSDTETLQKFPFEFKLRLHFTLKDHELIEHYEVVNPDSKKDLLFSIGGHPGFNLNLGDNQIQMEDTHIRIAPKQVYNQIPLKAPYTDPKNPIKFDATTPLDLTHALFKDDAIILDLKGEQITLMTENEVNNHGIAFTVANAPYLGIWSPYPATANFVCLEPWWGIADTVNFNGELKDKLGVNRLAAQETFNQEFSMSFF”, the protein production result is given as “failed”. In the case of “MTVVVEFLGTGGAHSEDLGSSSARISLPNSQNMLIDFGPDTYFSVNTRKLQFDAIFITHAHLDHVGGLERLFFSVAFKKQRLIKLYVPVSLVTRLHQIFGMAGSQVAEGGKNFWDCFQLIPITDYFYFSGYRFNVFPVRHHFPGEAFGLALPGCFVYTGDTRPIPEQLVAHAGRGELIFHDATTSSNPAHSALDDLKREYALHDVLDRLVLYHFDSAVERELAETQGWKTVRLGVTYQFGCRHVCSGSMCSNAELSSLGTNKALHNERGTKLPRPSIKKDEFV”, the protein production entry is given as “failed”. To “MTYGEAYLEGWKNIFNYEGVSNRFEFWSFMIGSGVICLLPLLCWWLAVTINNDYGVFIFFALPVSFILTLIFAVPAIALAVRRMHDIGYSGWWVTIAVLIPVTGVILLILCCLPSKSQDQA” belongs “failed”. As for “MTYNVTALVGNAGNQDTSGVRVDFVDNGVRVGSYTIPLLRSGETTTVVFNWTPMTVGSHTLQLIIDPENHIQETNETNNRIIL”, the protein production entry is on record as “failed”. To “MVAATSQNTFDSPRSPLYNFTMDIRPLSDVAGVILVGGRSRRMGRDKALIPLGGKPLVERVIDAFRPLFERILLVGDRGERFASYGLPVFPDIHPGSALGGLYTGLVRAGTPHVFVSACDVPWPDPRVIARLCSLREGFDVVVPRTVGGSEPLFAVYGTGCLPAMERMLREGNYRIYDFYPEVRTRYVEQAELADLVTPARTFVNVNTPEEFETIRNREEGMAIKAVSFVAKSGTGKTTLLEKVIAELKGRGYRIGVIKHDAHRFDIDHPGKDSHRLAAAGADTMLIASPEKLALVKKYDESPPLDELLATYFGDVDIVLTEGFKKSSLPKIEVHRMERSATLLCRGEEHDPTLVAVASDAALALDVPVFDLNNPAQVADFVERTFLAAGAALEHHHHHH” belongs “not failed”.

For the origin of these results see a protein production outcome set (Wang et al. 2014).
